{
  "source": "patent EP4663662A1",
  "about": "(Shanghai Qilu Pharmaceutical Research and Development …, dated 2025)",
  "binders": {"B1": {"name": "19CH-16H2L2 humanized anti-BCMA antibody (antibody, IgG1, V domains shown)", "VH": "QVQLVQSGAEVKKPGASVKVSCKASGFTFRSSYISWVRQAPGQGLEWIAWIYAGSGNTDYNQKFTGRVTMTVDTSTSTVYMELSSLRSEDTAVYYCARHYDPPHYFDYWGQGTLVTVSS", "VL": "DIQLTQSPSSLSASVGDRVTITCSASSGVSHMHWYQQKPGKAPKRWIYDTSKLTSGVPSRFSGSGSGTDFTLTISSLQPEDFATYYCQQWSRNPWTFGQGTKVEIK"}, "B2": {"name": "19CH-16H2L2-NA humanized anti-BCMA antibody variant (antibody, IgG1, V domains shown)", "VH": "B1 VH with T58A", "VL": "B1 VL"}, "B3": {"name": "19CH-16 anti-BCMA chimeric antibody derived from mouse hybridoma (antibody, IgG1, V domains shown)", "VH": "QGQMQQSGAELVKPGTSVKLSCKTSGFTFRSSYISWLQQKPGQSLEWIAWIYAGSGNTDYNQKFTGKAQLTVDTSSSTAYMQFSSLTTEDSAIYYCARHYDPPHYFDYWGQGTTLTVSS", "VL": "QIVLTQSPAIMSASPGEKVTMTCSASSGVSHMHWYQQKSGTSPKRWIYDTSKLTSGVPTRFSGTGSGTSYSLSISSMEAEDAATYYCQQWSRNPWTFGGGTKLEIK"}},
  "key": {"[1]": {"target": "T1, human BCMA (human, UniProt Q02223 1-184)", "T1 construct": "On transfected CHOK1 cells; also called Human BCMA-CHOK1 cell line; Human BCMA CHOK1", "T1 sequence": "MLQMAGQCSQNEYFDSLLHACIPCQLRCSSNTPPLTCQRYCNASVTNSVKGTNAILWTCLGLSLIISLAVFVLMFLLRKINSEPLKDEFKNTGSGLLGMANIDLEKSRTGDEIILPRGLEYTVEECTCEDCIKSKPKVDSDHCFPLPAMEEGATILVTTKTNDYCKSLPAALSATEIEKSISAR", "experiment": "flow cytometry, human BCMA-CHOK1 cells"}, "[2]": {"target": "T2, cynomolgus monkey BCMA (cynomolgus monkey, UniProt Q02223 1-184 (human entry))", "T2 construct": "On transduced CHOK1 cells; also called cyno-BCMA; Cynomolgus monkey BCMA-CHOK1 cell line", "T2 sequence (Q02223 other isoform, or with tags, fused parts or gaps)": "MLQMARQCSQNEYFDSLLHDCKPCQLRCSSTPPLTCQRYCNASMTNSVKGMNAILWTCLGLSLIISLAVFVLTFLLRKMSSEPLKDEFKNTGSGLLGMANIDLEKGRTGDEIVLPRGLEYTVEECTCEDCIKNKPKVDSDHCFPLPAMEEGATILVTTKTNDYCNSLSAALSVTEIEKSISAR", "experiment": "flow cytometry, cynomolgus BCMA-CHOK1 cells"}, "[3]": {"target": "T1, human BCMA", "experiment": "flow cytometry, human BCMA-CHOK1 cells", "remark": "listed apart in the source"}, "[4]": {"target": "T2, cynomolgus monkey BCMA", "experiment": "flow cytometry, cynomolgus BCMA-CHOK1 cells", "remark": "listed apart in the source"}, "[5]": {"target": "T1, human BCMA", "experiment": "flow cytometry, human BCMA-CHOK1 cells", "remark": "listed apart in the source"}, "[6]": {"target": "T2, cynomolgus monkey BCMA", "experiment": "flow cytometry, cynomolgus BCMA-CHOK1 cells", "remark": "listed apart in the source"}},
  "note": "Numbering of substitutions follows the chain as printed. Where two headings read alike, the source gives them in different places.",
  "data": [
    {"binder": "B1", "values": [
      {"measurement": "EC50", "setting": "[1]", "result": 2.13, "unit": "nM"},
      {"measurement": "EC50", "setting": "[2]", "result": 4.82, "unit": "nM"}
    ]},
    {"binder": "B2", "values": [
      {"measurement": "EC50", "setting": "[3]", "result": 2.15, "unit": "nM"},
      {"measurement": "EC50", "setting": "[4]", "result": 5.86, "unit": "nM"}
    ]},
    {"binder": "B3", "values": [
      {"measurement": "EC50", "setting": "[5]", "result": 0.885, "unit": "nM"},
      {"measurement": "EC50", "setting": "[6]", "result": 1.22, "unit": "nM"}
    ]}
  ]
}
